Results reported in patent US20260167699A1 (Chugai, published 2026).

Molecular target: T1, FcγRIIIa (human, UniProt P08637 17-208)
T1 construct: extracellular domain; also called 3a; FcγRIIIa extracellular domain
Test: SPR (Biacore);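 further: antibody variants captured on an SPR sensor chip, with FcγRIIIa passed over as analyte in HBS-EP+ buffer at 25 °C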
Experimental: The antibody of interest was analyzed for its interaction with FcγR using a BiaCore™ T100, BiaCore™ A100, or BiaCore™ 4000 surface plasmon resonance system (GE Healthcare Japan Corp.). The running buffer used was HBS-EP+ (GE Healthcare Japan Corp.). The assay temperature was set to 25° C. The sensor chips used were: a chip prepared by immobilizing antigenic peptides onto Series S Sensor Chip CM5 (GE Healthcare Japan Corp.) by the amine coupling method; a chip prepared by immobilizing antigenic peptides biotinylated in advance onto Series S Sensor Chip SA (certified) (GE Healthcare Japan Corp.) through their interaction; a chip prepared by immobilizing protein L (ACTIGEN, BioVision, Inc.) onto Series S Sensor Chip CM5 (GE Healthcare Japan Corp.); and a chip prepared by immobilizing protein A/G (Thermo Fisher Scientific K.K.) onto Series S Sensor Chip CM5 (GE Healthcare Japan Corp.). The antibody of interest was captured onto any of these chips and allowed to interact with FcγR diluted with a running buffer. The antibody captured on the chip was washed off through the reaction of 10 mM glycine-HCl (pH 1.5) to regenerate the chip, which was repetitively used.

T1 sequence (P08637 other isoform, or with tags, fused parts or gaps): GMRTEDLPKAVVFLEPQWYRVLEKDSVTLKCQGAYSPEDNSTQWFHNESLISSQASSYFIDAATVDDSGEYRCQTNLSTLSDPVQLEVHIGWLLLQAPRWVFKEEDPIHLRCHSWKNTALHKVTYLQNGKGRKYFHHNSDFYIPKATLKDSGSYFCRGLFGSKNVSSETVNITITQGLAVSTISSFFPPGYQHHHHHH

Binder | He/Con 3a
GpH7-A5/GpH7-B3 variant Q295_16H/GpL16-k0 (antibody, human IgG1, kappa, copies: 1 + 1 + 2) heavy 1: not shown heavy 2: not shown light: DIVMTQSPLSLPVTPGEPASISCQASESLVHSNRNTYLHWYLQKPGQSPQLLIYKVSNRFSGVPDRFSGSGSGTDFTLKISRVEAEDVGVYYCSQNTHVPPTFGQGTKVEIERTVAAPSVFIFPPSDEQLKSGTASVVCLLNNFYPREAKVQWKVDNALQSGNSQESVTEQDSKDSTYSLSSTLTLSKADYEKHKVYACEVTHQGLSSPVTKSFNRGEC | 80.2 % of GpH7-A5/GpH7-B3/GpL16-k0
GpH7-A5/GpH7-B3 variant S239_07I/GpL16-k0 (antibody, human IgG1, kappa, copies: 1 + 1 + 2) heavy 1: not shown heavy 2: not shown light: DIVMTQSPLSLPVTPGEPASISCQASESLVHSNRNTYLHWYLQKPGQSPQLLIYKVSNRFSGVPDRFSGSGSGTDFTLKISRVEAEDVGVYYCSQNTHVPPTFGQGTKVEIERTVAAPSVFIFPPSDEQLKSGTASVVCLLNNFYPREAKVQWKVDNALQSGNSQESVTEQDSKDSTYSLSSTLTLSKADYEKHKVYACEVTHQGLSSPVTKSFNRGEC | 75 % of GpH7-A5/GpH7-B3/GpL16-k0
GpH7-A5/GpH7-B3 variant S239_01G/GpL16-k0 (antibody, human IgG1, kappa, copies: 1 + 1 + 2) heavy 1: not shown heavy 2: not shown light: DIVMTQSPLSLPVTPGEPASISCQASESLVHSNRNTYLHWYLQKPGQSPQLLIYKVSNRFSGVPDRFSGSGSGTDFTLKISRVEAEDVGVYYCSQNTHVPPTFGQGTKVEIERTVAAPSVFIFPPSDEQLKSGTASVVCLLNNFYPREAKVQWKVDNALQSGNSQESVTEQDSKDSTYSLSSTLTLSKADYEKHKVYACEVTHQGLSSPVTKSFNRGEC | 72 % of GpH7-A5/GpH7-B3/GpL16-k0
GpH7-A5/GpH7-B3 variant S239_03V/GpL16-k0 (antibody, human IgG1, kappa, copies: 1 + 1 + 2) heavy 1: not shown heavy 2: not shown light: DIVMTQSPLSLPVTPGEPASISCQASESLVHSNRNTYLHWYLQKPGQSPQLLIYKVSNRFSGVPDRFSGSGSGTDFTLKISRVEAEDVGVYYCSQNTHVPPTFGQGTKVEIERTVAAPSVFIFPPSDEQLKSGTASVVCLLNNFYPREAKVQWKVDNALQSGNSQESVTEQDSKDSTYSLSSTLTLSKADYEKHKVYACEVTHQGLSSPVTKSFNRGEC | 72.4 % of GpH7-A5/GpH7-B3/GpL16-k0
GpH7-A5/GpH7-B3 variant S267_06M/GpL16-k0 (antibody, human IgG1, kappa, copies: 1 + 1 + 2) heavy 1: not shown heavy 2: not shown light: DIVMTQSPLSLPVTPGEPASISCQASESLVHSNRNTYLHWYLQKPGQSPQLLIYKVSNRFSGVPDRFSGSGSGTDFTLKISRVEAEDVGVYYCSQNTHVPPTFGQGTKVEIERTVAAPSVFIFPPSDEQLKSGTASVVCLLNNFYPREAKVQWKVDNALQSGNSQESVTEQDSKDSTYSLSSTLTLSKADYEKHKVYACEVTHQGLSSPVTKSFNRGEC | 65.3 % of GpH7-A5/GpH7-B3/GpL16-k0
GpH7-A5/GpH7-B3 variant S267_19Q/GpL16-k0 (antibody, human IgG1, kappa, copies: 1 + 1 + 2) heavy 1: not shown heavy 2: not shown light: DIVMTQSPLSLPVTPGEPASISCQASESLVHSNRNTYLHWYLQKPGQSPQLLIYKVSNRFSGVPDRFSGSGSGTDFTLKISRVEAEDVGVYYCSQNTHVPPTFGQGTKVEIERTVAAPSVFIFPPSDEQLKSGTASVVCLLNNFYPREAKVQWKVDNALQSGNSQESVTEQDSKDSTYSLSSTLTLSKADYEKHKVYACEVTHQGLSSPVTKSFNRGEC | 64.3 % of GpH7-A5/GpH7-B3/GpL16-k0
GpH7-A5/GpH7-B3 variant S267_09D/GpL16-k0 (antibody, human IgG1, kappa, copies: 1 + 1 + 2) heavy 1: not shown heavy 2: not shown light: DIVMTQSPLSLPVTPGEPASISCQASESLVHSNRNTYLHWYLQKPGQSPQLLIYKVSNRFSGVPDRFSGSGSGTDFTLKISRVEAEDVGVYYCSQNTHVPPTFGQGTKVEIERTVAAPSVFIFPPSDEQLKSGTASVVCLLNNFYPREAKVQWKVDNALQSGNSQESVTEQDSKDSTYSLSSTLTLSKADYEKHKVYACEVTHQGLSSPVTKSFNRGEC | 179 % of GpH7-A5/GpH7-B3/GpL16-k0
GpH7-A5/GpH7-B3 variant S298_02A/GpL16-k0 (antibody, human IgG1, kappa, copies: 1 + 1 + 2) heavy 1: not shown heavy 2: not shown light: DIVMTQSPLSLPVTPGEPASISCQASESLVHSNRNTYLHWYLQKPGQSPQLLIYKVSNRFSGVPDRFSGSGSGTDFTLKISRVEAEDVGVYYCSQNTHVPPTFGQGTKVEIERTVAAPSVFIFPPSDEQLKSGTASVVCLLNNFYPREAKVQWKVDNALQSGNSQESVTEQDSKDSTYSLSSTLTLSKADYEKHKVYACEVTHQGLSSPVTKSFNRGEC | 151 % of GpH7-A5/GpH7-B3/GpL16-k0
GpH7-A5/GpH7-B3 variant S267_10E/GpL16-k0 (antibody, human IgG1, kappa, copies: 1 + 1 + 2) heavy 1: not shown heavy 2: not shown light: DIVMTQSPLSLPVTPGEPASISCQASESLVHSNRNTYLHWYLQKPGQSPQLLIYKVSNRFSGVPDRFSGSGSGTDFTLKISRVEAEDVGVYYCSQNTHVPPTFGQGTKVEIERTVAAPSVFIFPPSDEQLKSGTASVVCLLNNFYPREAKVQWKVDNALQSGNSQESVTEQDSKDSTYSLSSTLTLSKADYEKHKVYACEVTHQGLSSPVTKSFNRGEC | 90.9 % of GpH7-A5/GpH7-B3/GpL16-k0
GpH7-A5/GpH7-B3 variant S298_01G/GpL16-k0 (antibody, human IgG1, kappa, copies: 1 + 1 + 2) heavy 1: not shown heavy 2: not shown light: DIVMTQSPLSLPVTPGEPASISCQASESLVHSNRNTYLHWYLQKPGQSPQLLIYKVSNRFSGVPDRFSGSGSGTDFTLKISRVEAEDVGVYYCSQNTHVPPTFGQGTKVEIERTVAAPSVFIFPPSDEQLKSGTASVVCLLNNFYPREAKVQWKVDNALQSGNSQESVTEQDSKDSTYSLSSTLTLSKADYEKHKVYACEVTHQGLSSPVTKSFNRGEC | 74.9 % of GpH7-A5/GpH7-B3/GpL16-k0
GpH7-A5/GpH7-B3 variant S239_08L/GpL16-k0 (antibody, human IgG1, kappa, copies: 1 + 1 + 2) heavy 1: not shown heavy 2: not shown light: DIVMTQSPLSLPVTPGEPASISCQASESLVHSNRNTYLHWYLQKPGQSPQLLIYKVSNRFSGVPDRFSGSGSGTDFTLKISRVEAEDVGVYYCSQNTHVPPTFGQGTKVEIERTVAAPSVFIFPPSDEQLKSGTASVVCLLNNFYPREAKVQWKVDNALQSGNSQESVTEQDSKDSTYSLSSTLTLSKADYEKHKVYACEVTHQGLSSPVTKSFNRGEC | 90 % of GpH7-A5/GpH7-B3/GpL16-k0
GpH7-A5/GpH7-B3 variant S239_19Q/GpL16-k0 (antibody, human IgG1, kappa, copies: 1 + 1 + 2) heavy 1: not shown heavy 2: not shown light: DIVMTQSPLSLPVTPGEPASISCQASESLVHSNRNTYLHWYLQKPGQSPQLLIYKVSNRFSGVPDRFSGSGSGTDFTLKISRVEAEDVGVYYCSQNTHVPPTFGQGTKVEIERTVAAPSVFIFPPSDEQLKSGTASVVCLLNNFYPREAKVQWKVDNALQSGNSQESVTEQDSKDSTYSLSSTLTLSKADYEKHKVYACEVTHQGLSSPVTKSFNRGEC | 53.8 % of GpH7-A5/GpH7-B3/GpL16-k0
GpH7-A5/GpH7-B3 variant S239_02A/GpL16-k0 (antibody, human IgG1, kappa, copies: 1 + 1 + 2) heavy 1: not shown heavy 2: not shown light: DIVMTQSPLSLPVTPGEPASISCQASESLVHSNRNTYLHWYLQKPGQSPQLLIYKVSNRFSGVPDRFSGSGSGTDFTLKISRVEAEDVGVYYCSQNTHVPPTFGQGTKVEIERTVAAPSVFIFPPSDEQLKSGTASVVCLLNNFYPREAKVQWKVDNALQSGNSQESVTEQDSKDSTYSLSSTLTLSKADYEKHKVYACEVTHQGLSSPVTKSFNRGEC | 70.9 % of GpH7-A5/GpH7-B3/GpL16-k0
GpH7-A5/GpH7-B3 variant S267_02A/GpL16-k0 (antibody, human IgG1, kappa, copies: 1 + 1 + 2) heavy 1: not shown heavy 2: not shown light: DIVMTQSPLSLPVTPGEPASISCQASESLVHSNRNTYLHWYLQKPGQSPQLLIYKVSNRFSGVPDRFSGSGSGTDFTLKISRVEAEDVGVYYCSQNTHVPPTFGQGTKVEIERTVAAPSVFIFPPSDEQLKSGTASVVCLLNNFYPREAKVQWKVDNALQSGNSQESVTEQDSKDSTYSLSSTLTLSKADYEKHKVYACEVTHQGLSSPVTKSFNRGEC | 149 % of GpH7-A5/GpH7-B3/GpL16-k0
GpH7-A5/GpH7-B3 variant S239_10E/GpL16-k0 (antibody, human IgG1, kappa, copies: 1 + 1 + 2) heavy 1: not shown heavy 2: not shown light: DIVMTQSPLSLPVTPGEPASISCQASESLVHSNRNTYLHWYLQKPGQSPQLLIYKVSNRFSGVPDRFSGSGSGTDFTLKISRVEAEDVGVYYCSQNTHVPPTFGQGTKVEIERTVAAPSVFIFPPSDEQLKSGTASVVCLLNNFYPREAKVQWKVDNALQSGNSQESVTEQDSKDSTYSLSSTLTLSKADYEKHKVYACEVTHQGLSSPVTKSFNRGEC | 171 % of GpH7-A5/GpH7-B3/GpL16-k0
GpH7-A5/GpH7-B3 variant S239_14T/GpL16-k0 (antibody, human IgG1, kappa, copies: 1 + 1 + 2) heavy 1: not shown heavy 2: not shown light: DIVMTQSPLSLPVTPGEPASISCQASESLVHSNRNTYLHWYLQKPGQSPQLLIYKVSNRFSGVPDRFSGSGSGTDFTLKISRVEAEDVGVYYCSQNTHVPPTFGQGTKVEIERTVAAPSVFIFPPSDEQLKSGTASVVCLLNNFYPREAKVQWKVDNALQSGNSQESVTEQDSKDSTYSLSSTLTLSKADYEKHKVYACEVTHQGLSSPVTKSFNRGEC | 93 % of GpH7-A5/GpH7-B3/GpL16-k0
GpH7-A5/GpH7-B3 variant Q295_18N/GpL16-k0 (antibody, human IgG1, kappa, copies: 1 + 1 + 2) heavy 1: not shown heavy 2: not shown light: DIVMTQSPLSLPVTPGEPASISCQASESLVHSNRNTYLHWYLQKPGQSPQLLIYKVSNRFSGVPDRFSGSGSGTDFTLKISRVEAEDVGVYYCSQNTHVPPTFGQGTKVEIERTVAAPSVFIFPPSDEQLKSGTASVVCLLNNFYPREAKVQWKVDNALQSGNSQESVTEQDSKDSTYSLSSTLTLSKADYEKHKVYACEVTHQGLSSPVTKSFNRGEC | 85.7 % of GpH7-A5/GpH7-B3/GpL16-k0
GpH7-A5/GpH7-B3 variant S239_09D/GpL16-k0 (antibody, human IgG1, kappa, copies: 1 + 1 + 2) heavy 1: not shown heavy 2: not shown light: DIVMTQSPLSLPVTPGEPASISCQASESLVHSNRNTYLHWYLQKPGQSPQLLIYKVSNRFSGVPDRFSGSGSGTDFTLKISRVEAEDVGVYYCSQNTHVPPTFGQGTKVEIERTVAAPSVFIFPPSDEQLKSGTASVVCLLNNFYPREAKVQWKVDNALQSGNSQESVTEQDSKDSTYSLSSTLTLSKADYEKHKVYACEVTHQGLSSPVTKSFNRGEC | 156 % of GpH7-A5/GpH7-B3/GpL16-k0
GpH7-A5/GpH7-B3 variant S267_18N/GpL16-k0 (antibody, human IgG1, kappa, copies: 1 + 1 + 2) heavy 1: not shown heavy 2: not shown light: DIVMTQSPLSLPVTPGEPASISCQASESLVHSNRNTYLHWYLQKPGQSPQLLIYKVSNRFSGVPDRFSGSGSGTDFTLKISRVEAEDVGVYYCSQNTHVPPTFGQGTKVEIERTVAAPSVFIFPPSDEQLKSGTASVVCLLNNFYPREAKVQWKVDNALQSGNSQESVTEQDSKDSTYSLSSTLTLSKADYEKHKVYACEVTHQGLSSPVTKSFNRGEC | 52 % of GpH7-A5/GpH7-B3/GpL16-k0
GpH7-A5/GpH7-B3 variant S239_06M/GpL16-k0 (antibody, human IgG1, kappa, copies: 1 + 1 + 2) heavy 1: not shown heavy 2: not shown light: DIVMTQSPLSLPVTPGEPASISCQASESLVHSNRNTYLHWYLQKPGQSPQLLIYKVSNRFSGVPDRFSGSGSGTDFTLKISRVEAEDVGVYYCSQNTHVPPTFGQGTKVEIERTVAAPSVFIFPPSDEQLKSGTASVVCLLNNFYPREAKVQWKVDNALQSGNSQESVTEQDSKDSTYSLSSTLTLSKADYEKHKVYACEVTHQGLSSPVTKSFNRGEC | 73.9 % of GpH7-A5/GpH7-B3/GpL16-k0
GpH7-A5/GpH7-B3 variant S239_18N/GpL16-k0 (antibody, human IgG1, kappa, copies: 1 + 1 + 2) heavy 1: not shown heavy 2: not shown light: DIVMTQSPLSLPVTPGEPASISCQASESLVHSNRNTYLHWYLQKPGQSPQLLIYKVSNRFSGVPDRFSGSGSGTDFTLKISRVEAEDVGVYYCSQNTHVPPTFGQGTKVEIERTVAAPSVFIFPPSDEQLKSGTASVVCLLNNFYPREAKVQWKVDNALQSGNSQESVTEQDSKDSTYSLSSTLTLSKADYEKHKVYACEVTHQGLSSPVTKSFNRGEC | 104 % of GpH7-A5/GpH7-B3/GpL16-k0
GpH7-A5/GpH7-B3 variant S267_01G/GpL16-k0 (antibody, human IgG1, kappa, copies: 1 + 1 + 2) heavy 1: not shown heavy 2: not shown light: DIVMTQSPLSLPVTPGEPASISCQASESLVHSNRNTYLHWYLQKPGQSPQLLIYKVSNRFSGVPDRFSGSGSGTDFTLKISRVEAEDVGVYYCSQNTHVPPTFGQGTKVEIERTVAAPSVFIFPPSDEQLKSGTASVVCLLNNFYPREAKVQWKVDNALQSGNSQESVTEQDSKDSTYSLSSTLTLSKADYEKHKVYACEVTHQGLSSPVTKSFNRGEC | 53.3 % of GpH7-A5/GpH7-B3/GpL16-k0
